Test results taken from patent US20170281749A1.

Assays:
[1] = biological target: CH505TF gp120 GCN4 Trimer; experiment: SPR
CH505TF gp140 Trimer = experiment: SPR

Substance | Kd [1] | Kd (CH505TF gp140 Trimer)
CH01 (V1-V2) | > 100000 nM | –
VRC01 (CD4 bs) | 2.5 nM | 2.4 nM
697 D (V2) | 554 nM | 170 nM
19b (V3) | 0.8 nM | 1.2 nM
2G12 (-CHO) | 169 nM | 6.5 nM
CH106 (CD4 bs) | 5.5 nM | 5.81 nM
CH58 (V2) | 104 nM | 60.5 nM
CH103_UCA (CD4 bs) | 14.6 nM | 36.1 nM
PG9 (V1-V2) | 159 nM | 69.2 nM
A32 (C1) | 2.9 nM | 3 nM
PGT128 (-CHO) | 53 nM | 20.3 nM
F105 (CD4 bs) | 40.7 nM | 24.9 nM
